Values joined by “and” are separate entries in the source; they are usually repeats but may differ in a detail not shown here. Identical values can stand only once. Like-named read-outs stand apart in the source and are kept apart here.

For one data set, the target named is spike RBD (Severe acute respiratory syndrome coronavirus 2, UniProt P0DTC2).
Data set [1] has as its target SARS-CoV-2-Spike receptor binding domain protein (RBD) (Severe acute respiratory syndrome coronavirus 2, UniProt P0DTC2).
The nature of data set [2]: Capillary isoelectric focusing (cIEF), isoelectric point. The settings on record: non-reduced; mature knob expression, 2 L scale. The data set is classed as physicochemical. The procedure: Capillary isoelectric focusing (cIEF): 2 mg/mL knob protein samples were diluted 2-fold by combining 30 microliter of sample with 30 μL of Milli-Q water. 20 μL of the diluted sample was added to 180 μL of Master Mix comprised of: 35% of 1% Methyl cellulose, 10 mM of 0.5M Arginine, 10 mM of 0.25M Iminodiacetic acid, 4% of pI 3-10 Pharmalyte solution, 1% of pI 4.05 marker, 1% of pI 9.5 marker, 2M of 8M Urea, and Milli-Q water. The total amount of 200 μL was then aliquoted into the sample plate for iCIEF analysis. Separation of the analyte occurs in the Maurice capillary cIEF cartridge (Bio-techne PN: PS-MC02-C) set to 55 seconds of sample load, and 1 min at 1500 V then 15 min at 3000 V. Both absorbance and fluorescence detection settings were enabled. Absorbance exposure time was set to 0.005 seconds, while fluorescence exposure times were set to 3, 5, 10, 20 and 40 seconds. Data processing was performed by Compass for iCE software (Version: 2.1.0, Build ID: 0226) from Bio-techne.

Data set [3] addresses SARS-CoV-2 Spike RBD (SARS-CoV-2), P0DTC2.
Data set [4] has the same target. The source holds these as a separate data set.
The target is the same in data set [5]. The source holds these as a separate data set.
Data set [6] shares this target. The source holds these as a separate data set.
For data set [7] the target is unchanged. This is another data set of the same source.
The target is the same in data set [8]. The source holds these as a separate data set.
The target is the same in data set [9]. The source holds these as a separate data set.
The target is the same in data set [10]. This is another data set of the same source.
For data set [11] the target is unchanged. The source holds these as a separate data set.
Data set [12] shares this target. The source holds these as a separate data set.
For data set [13] the target is unchanged. The source holds these as a separate data set.
Data set [14] has the same target. This is another data set of the same source.
The target is the same in data set [15]. This is another data set of the same source.
The target is the same in data set [16]. This is another data set of the same source.
Data set [17] shares this target. The source holds these as a separate data set.
For data set [18] the target is unchanged. The source holds these as a separate data set.
The target is the same in data set [19]. The source holds these as a separate data set.
Data set [20] shares this target. This is another data set of the same source.
Data set [21] shares this target. This is another data set of the same source.
Data set [22] has the same target. This is another data set of the same source.
The target is the same in data set [23]. This is another data set of the same source.
Data set [24] shares this target. The source holds these as a separate data set.
Data set [25] has the same target. The source holds these as a separate data set.
The target is the same in data set [26]. This is another data set of the same source.
Data set [27] shares this target. This is another data set of the same source.
The target is the same in data set [28]. The source holds these as a separate data set.

“R2G3-mini (GSTCPDGYEHTCGCIGGCGCKRSACIGALCCQASLGGWLS)”: the “binding activity to spike RBD” value with spike RBD is recorded as “maintain binding activity”. In addition, in data set [1], the “Amino Acid Sequence of Binding Epitopes to Spike RBD Protein as determined by HDX Analysis: Major Epitope” value is 154-192 (Major and 154-194 (Major; the “RBD amino acid sequence with maximum protection against deuterium uptake” value is on record as 158-184. For the same molecule, the “Isoelectric Point (pI) Determination by iCEF” value in [2] is 7.37 (non-reduced).
In the case of “R2F12-mini (GGSNACPDDFDYRCSCIGGCGCARKGCVGPLCCRSDLGGYLTDSPA)”, the “binding activity to spike RBD” value with spike RBD is given as “maintain binding activity”. Further, the “Amino Acid Sequence of Binding Epitopes to Spike RBD Protein as determined by HDX Analysis: Major Epitope” value in [1] was 154-194 (Major and 154-192 (Major. In addition, the “Isoelectric Point (pI) Determination by iCEF” value in [2] is on record as 5.15 (non-reduced).

B1: R2F12-His (peptide)
chain: GGGGAMGSKTKNACPDDFDYRCSCIGGCGCARKGCVGPLCCRSDLGGYLTDSPAYIYLGGGGSGGGGSHHHHHH
modifications: not checked
As for B1, the Adjusted Binding Rate in data set [3] is 2.69 nm/s; in data set [4], 2.46 nm/s; in [5], 5.37 nm/s; in data set [6], 9.6 nm/s; in data set [7] it was 3.86 nm/s; in data set [8] it was 3.54 nm/s. In addition, the Adjusted Binding Rate was determined as 1.62 nm/s in [9]; 3.32 nm/s in data set [10]; 2.76 nm/s in data set [11]; 14.9 nm/s in [12]; 1.3 nm/s in data set [13]; 0.8 nm/s in [14]. Moreover, the Adjusted Binding Rate in data set [15] was found to be 4.69 nm/s; in data set [16], 3.61 nm/s; in data set [17] it was 0.5 nm/s; in [18] it was 3.6 nm/s; in [19] it was 2.38 nm/s; in data set [20] it was 1.33 nm/s. The Adjusted Binding Rate is 0.62 nm/s in [21]; 2.11 nm/s in [22]; 9.3 nm/s in data set [23]; 4.7 nm/s in data set [24]; 0.4 nm/s in data set [25]; 2.68 nm/s in [26]. For the same molecule, the Adjusted Binding Rate in data set [27] amounted to 1.67 nm/s; in data set [28], 0.8 nm/s.

Values taken from patent publication US20260201020A1, “METHODS FOR EXPRESSION OF FUSION-FREE BOVINE ULTRALONG CDR3 SCAFFOLD” (priority 2022, published 2026).
